Experimental data as given in patent publication US20160047821.
Changes are numbered by the printed parent chain.

What was measured:
[1] = molecular target: T1, GST-RelB deletion mutant Δ1 (amino acids 274-321)
T1 chain: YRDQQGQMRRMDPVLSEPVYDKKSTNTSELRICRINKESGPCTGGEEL

[2] = molecular target: T2, GST-RelB deletion mutant Δ2 (amino acids 316-377)
T2 chain: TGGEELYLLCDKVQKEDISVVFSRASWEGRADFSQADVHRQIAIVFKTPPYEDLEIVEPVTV

[3] = molecular target: T3, GST-RelB deletion mutant Δ3 (amino acids 372-448)
T3 chain: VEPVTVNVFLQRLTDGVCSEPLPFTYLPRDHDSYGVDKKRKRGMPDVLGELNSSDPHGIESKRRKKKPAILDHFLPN

[4] = molecular target: T4, GST-RelB deletion mutant Δ4 (amino acids 441-504)
T4 chain: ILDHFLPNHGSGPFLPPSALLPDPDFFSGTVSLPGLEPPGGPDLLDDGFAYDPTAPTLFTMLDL

[5] = molecular target: T5, GST-RelB deletion mutant Δ5 (amino acids 499-580)
T5 chain: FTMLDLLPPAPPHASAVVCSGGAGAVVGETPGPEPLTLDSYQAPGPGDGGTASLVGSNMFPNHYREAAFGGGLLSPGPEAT

[6] = molecular target: T6, GST-RelB Δ4 point mutant S451A
T6 chain: T4 chain with S11A

[7] = molecular target: T7, GST-RelB Δ4 point mutant S458A
T7 chain: T4 chain with S18A

[8] = molecular target: T8, GST-RelB Δ4 point mutant S468A
T8 chain: T4 chain with S28A

[9] = molecular target: T9, GST-RelB Δ4 point mutant S472A
T9 chain: T4 chain with S32A

B1: IκB kinase (IKK) complex (endogenous, WT MEFs) (protein)
chain 1: MERPPGLRPGAGGPWEMRERLGTGGFGNVSLYQHRELDLKIAIKSCRLELSSKNRERWCHEIQIMKKLDHANVVKACDVPEELNFLINDVPLLAMEYCSGGDLRKLLNKPENCCGLKESQILSLLSDIGSGIRYLHENKIIHRDLKPENIVLQDVGGKTIHKIIDLGYAKDVDQGSLCTSFVGTLQYLAPELFENKPYTATVDYWSFGTMVFECIAGYRPFLHHLQPFTWHEKIKKKDPKCIFACEEMTGEVRFSSHLPQPNSLCSLIVEPMESWLQLMLNWDPQQRGGPIDLTLKQPRCFALMDHILNLKIVHILNMTSAKIISFLLPCDESLHSLQSRIERETGINTGSQELLSETGISLDPRKPASQCVLDGVRGCDSYMVYLFDKSKTVYEGPFASRSLSDCVNYIVQDSKIQLPIIQLRKVWAEAVHYVSGLKEDYSRLFQGQRAAMLSLLRYNANLTKMKNTLISASQQLKAKLEFFRKSIQLDLERYSEQMTYGISSEKMLKAWKEMEEKAIHYSEVGVIGYLEDQIMSLHTEIMELQKSPYGRRQGDLMESLEQRAIDLYKQLKHRPPDHLYSDSTEMVKIIVHTVQSQDRVLKELFGHLSKLLGCKQKIIDLLPKVEVALSNIKEADNTVMFMQGKRQKEIWHLLKIACTQSSARSLVGSSLEGTVTPPVSAWLPPTLADREHPLTCVVTPQDGETLAQMIEENLNCLGHLSTIIREANEDQSSSLMSLDWSWLAE
chain 2: MSWSPSLPTQTCGAWEMKERLGTGGFGNVIRWHNQATGEQIAIKQCRQELSPKNRNRWCLEIQIMRRLNHPNVVAARDVPEGMQNLAPNDLPLLAMEYCQGGDLRRYLNQFENCCGLREGAVLTLLSDIASALRYLHENRIIHRDLKPENIVLQQGEKRLIHKIIDLGYAKELDQGSLCTSFVGTLQYLAPELLEQQKYTVTVDYWSFGTLAFECITGFRPFLPNWQPVQWHSKVRQKSEVDIVVSEDLNGAVKFSSSLPFPNNLNSVLAERLEKWLQLMLMWHPRQRGTDPQYGPNGCFRALDDILNLKLVHVLNMVTGTVHTYPVTEDESLQSLKTRIQENTGILETDQELLQKAGLVLLPDKPATQCISDSKTNEGLTLDMDLVFLLDNSKINYETQITPRPPPESVSCILQEPKRNLSFFQLRKVWGQVWHSIQTLKEDCNRLQQGQRAAMMSLLRNNSCLSKMKNAMASTAQQLKAKLDFFKTSIQIDLEKYKEQTEFGITSDKLLLAWREMEQAVEQCGRENDVKHLVERMMALQTDIVDLQRSPMGRKQGGTLDDLEEQARELYRKLREKPRDQRTEGDSQEMVRLLLQAIQSFEKKVRVIYTQLSKTVVCKQKALELLPKVEEVVSLMNEDERTVVRLQEKRQKELWNLLKIACSKVRGPVSGSPDSMNVSRLSHPGQLMSQPSSACDSLPESDKKSEELVAEAHALCSRLESALQDTVKEQDRSFTTLDWSWLQMEDEERCSLEQACD
chain 3: MNKHPWKNQLSEMVQPSGGPAEDQDMLGEESSLGKPAMLHLPSEQGTPETLQRCLEENQELRDAIRQSNQMLRERCEELLHFQVSQREEKEFLMCKFQEARKLVERLSLEKLDLRSQREQALKELEQLKKCQQQMAEDKASVKAQVTSLLGELQESQSRLEAATKDRQALEGRIRAVSEQVRQLESEREVLQQQHSVQVDQLRMQNQSVEAALRMERQAASEEKRKLAQLQAAYHQLFQDYDSHIKSSKGMQLEDLRQQLQQAEEALVAKQELIDKLKEEAEQHKIVMETVPVLKAQADIYKADFQAERHAREKLVEKKEYLQEQLEQLQREFNKLKVGCHESARIEDMRKRHVETPQPPLLPAPAHHSFHLALSNQRRSPPEEPPDFCCPKCQYQAPDMDTLQIHVMECIE
IKKγ kinase assays (phosphorylation of the GST-RelB substrate, 32P autoradiography) [1]: Only mutant Δ4 was efficiently phosphorylated by IKKγ | IKKγ kinase assays (phosphorylation of the GST-RelB substrate, 32P autoradiography) [2]: Only mutant Δ4 was efficiently phosphorylated by IKKγ | IKKγ kinase assays (phosphorylation of the GST-RelB substrate, 32P autoradiography) [3]: Only mutant Δ4 was efficiently phosphorylated by IKKγ | IKKγ kinase assays (phosphorylation of the GST-RelB substrate, 32P autoradiography) [4]: Only mutant Δ4 was efficiently phosphorylated by IKKγ | IKKγ kinase assays (phosphorylation of the GST-RelB substrate, 32P autoradiography) [5]: Only mutant Δ4 was efficiently phosphorylated by IKKγ | in vitro kinase assays (phosphorylation of GST-RelB Δ4 point mutants) [6]: only a point mutation at serine 472 abolished phosphorylation of the Δ4 RelB deletion mutant | in vitro kinase assays (phosphorylation of GST-RelB Δ4 point mutants) [7]: only a point mutation at serine 472 abolished phosphorylation of the Δ4 RelB deletion mutant | in vitro kinase assays (phosphorylation of GST-RelB Δ4 point mutants) [8]: only a point mutation at serine 472 abolished phosphorylation of the Δ4 RelB deletion mutant | in vitro kinase assays (phosphorylation of GST-RelB Δ4 point mutants) [9]: only a point mutation at serine 472 abolished phosphorylation of the Δ4 RelB deletion mutant
